The values below come from US20240027467A1 (VIB VZW, published 2024).

Like-named read-outs stand apart in the source and are kept apart here.

The target of test [1] is T1, native human coagulation factor IX (human, UniProt P00740 47-461).
T1 construct: Native protein captured from plasma; also called FIX
The test is described as follows: displacement of native factor IX from immobilised CA11143 (NANEX column) by 1 mg MegaBody CA16383; A280, SDS-PAGE and western blot [D00046 FIG. 42B; D00047 FIG. 42C].
Method: (§1) 30 mL of human recovered plasma treated with ACD anticoagulant was loaded on this NANEX column by recirculation for 120 minutes. […] FIG. 42B) SDS-PAGE of representative fractions of the purification and FIG. 42C) the western blot of these fractions. MW, molecular weight marker (PageRuler™ Prestained Protein Ladder); and asterisk (*), commercial native human coagulation factor IX (used as control).
(§2) The purification process was monitored by measuring the absorbance at 280 nm (Protein absorption) (FIGS. 42A-42C). The elution peak was collected in 750 μl fractions and the fractions were analyzed in SDS/PAGE gel and by western blot including a commercial human coagulation factor IX as a positive control (FIGS. 42A-42C). Regeneration of the column was obtained by 5 CV of 200 mM Glycine buffer pH 2.3.

Test [2] deals with T1, native human coagulation factor IX. Nature of the test: NANEX column: 30 mL human plasma recirculated over immobilised CA11143; A280, SDS-PAGE and western blot [D00046 FIG. 42B; D00047 FIG. 42C].
Method: as §1, §2
Test [3] deals with T2, GFP protein (Aequorea victoria (Water jellyfish) …, UniProt P42212 1-238 = GFP).
T2 construct: Purified GFP used as BLI analyte, in crystals and in NANEX; also called Green fluorescent protein
Nature of the test: BLI.
Method: (§3) Streptavidin-coated Octet® biosensors were used to capture biotinylated Nanobodies (1 μg/mL). Binding and dissociation isotherms at several GFP concentrations (1 nM to 5 μM range) were analyzed on an OctetRed (molecular devices). All assays were performed in Hepes 25 mM pH7.5, NaCl 150 mM supplemented with BSA 0.1% and Tween²⁰ 0.005% at room temperature.

For test [4], the target named is T2, GFP protein. The test is described as follows: BLI (OctetRed), biotinylated Nb on streptavidin sensor, GFP as analyte.
Method: as §3
In test [5] the target is T3, CA16976 eGFP-tagged human recombinant androgen receptor (eGFP-6His-TEV-ARb) (human).
T3 construct: Expressed in HEK293T cells, captured from the lysate; also called GFP-ARb; eGFP-ARb
T3 sequence (chain, as listed by the source limits assumed): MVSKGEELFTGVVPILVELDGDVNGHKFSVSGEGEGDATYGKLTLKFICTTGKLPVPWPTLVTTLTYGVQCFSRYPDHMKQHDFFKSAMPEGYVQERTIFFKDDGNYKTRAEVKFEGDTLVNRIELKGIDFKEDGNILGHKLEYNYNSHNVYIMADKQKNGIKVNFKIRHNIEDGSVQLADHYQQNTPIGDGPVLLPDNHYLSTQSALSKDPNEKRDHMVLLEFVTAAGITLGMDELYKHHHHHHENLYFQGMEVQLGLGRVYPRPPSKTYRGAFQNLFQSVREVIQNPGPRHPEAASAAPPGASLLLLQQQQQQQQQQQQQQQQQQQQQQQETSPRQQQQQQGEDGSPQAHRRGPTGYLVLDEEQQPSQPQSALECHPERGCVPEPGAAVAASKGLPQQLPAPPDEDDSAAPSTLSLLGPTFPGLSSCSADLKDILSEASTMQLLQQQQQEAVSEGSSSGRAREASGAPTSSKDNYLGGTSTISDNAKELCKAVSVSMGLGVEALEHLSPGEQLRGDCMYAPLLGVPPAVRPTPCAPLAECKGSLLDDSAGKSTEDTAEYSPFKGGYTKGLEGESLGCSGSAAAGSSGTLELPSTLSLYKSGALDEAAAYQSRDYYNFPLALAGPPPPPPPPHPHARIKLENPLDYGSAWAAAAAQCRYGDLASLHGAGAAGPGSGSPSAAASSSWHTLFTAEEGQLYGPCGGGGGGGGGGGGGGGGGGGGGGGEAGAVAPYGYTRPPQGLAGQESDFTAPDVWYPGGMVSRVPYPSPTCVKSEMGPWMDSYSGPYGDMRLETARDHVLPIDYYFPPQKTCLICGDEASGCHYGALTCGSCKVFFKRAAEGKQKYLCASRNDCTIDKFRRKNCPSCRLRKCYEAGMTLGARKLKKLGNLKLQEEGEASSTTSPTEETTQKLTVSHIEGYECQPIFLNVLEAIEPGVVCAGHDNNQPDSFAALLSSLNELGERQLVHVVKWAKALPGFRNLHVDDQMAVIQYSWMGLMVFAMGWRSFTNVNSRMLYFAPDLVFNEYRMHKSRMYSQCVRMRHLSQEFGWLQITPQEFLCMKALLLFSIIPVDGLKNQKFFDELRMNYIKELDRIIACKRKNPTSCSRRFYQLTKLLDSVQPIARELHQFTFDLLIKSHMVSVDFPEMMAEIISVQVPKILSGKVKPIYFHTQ
Nature of the test: NANEX column: HEK293T lysate with GFP-ARb on immobilised CA15816; A280/A488.
Method: 10 mL of lysate was injected on this NANEX column. […] FIG. 45A) The elution of GFP-GR by this stripper was monitored by following the absorbance at 280 nm and 488 nm. […] The right peak eluted upon regeneration with 200 mM glycine at pH 2.3. FIG. 45B) SDS-PAGE of the different purification fractions, molecular weight marker (PageRuler™ Prestained Protein Ladder).
Recombinant human eGFP-6His-TEV-AR was expressed using a pcDNA3.1+N-eGFP vector transfected into human HEK239T cells. Cells were transfected in 150×21 mm dishes (Nunclon™ Delta) using X-tremeGENE™ 9 DNA Transfection Reagent (XTG9-RO Roche) with a ratio 3:1 μL/μg DNA. After transfection, HEK239T cells were grown for 48 h at 37° C. and 5% CO₂. Cells from 3 plates were collected by pipetting and centrifugation, washed with PBS and resuspended in 10 mL lysis buffer 10 mM Hepes 7.5, 2.5 mM DTT, 1 mM EDTA, 20 mM Na₂MoO₄, 10% Glycerol (supplemented with protease inhibitors) before lysis using a Dounce homogenizer. […] Next, the column was washed with 10 CVs of washing buffer (10 mM Hepes 7.5, 2.5 mM DTT, 1 mM EDTA, 20 mM Na₂MoO₄, 10% Glycerol) using a syringe.

For test [6], the target named is T4, CA16607 eGFP-tagged human recombinant glucocorticoid receptor (eGFP-6His-TEV-GR) (human).
T4 construct: Expressed in HEK293T cells, captured from the lysate; also called GFP-GR; eGFP-GR
T4 sequence (chain, as listed by the source limits assumed): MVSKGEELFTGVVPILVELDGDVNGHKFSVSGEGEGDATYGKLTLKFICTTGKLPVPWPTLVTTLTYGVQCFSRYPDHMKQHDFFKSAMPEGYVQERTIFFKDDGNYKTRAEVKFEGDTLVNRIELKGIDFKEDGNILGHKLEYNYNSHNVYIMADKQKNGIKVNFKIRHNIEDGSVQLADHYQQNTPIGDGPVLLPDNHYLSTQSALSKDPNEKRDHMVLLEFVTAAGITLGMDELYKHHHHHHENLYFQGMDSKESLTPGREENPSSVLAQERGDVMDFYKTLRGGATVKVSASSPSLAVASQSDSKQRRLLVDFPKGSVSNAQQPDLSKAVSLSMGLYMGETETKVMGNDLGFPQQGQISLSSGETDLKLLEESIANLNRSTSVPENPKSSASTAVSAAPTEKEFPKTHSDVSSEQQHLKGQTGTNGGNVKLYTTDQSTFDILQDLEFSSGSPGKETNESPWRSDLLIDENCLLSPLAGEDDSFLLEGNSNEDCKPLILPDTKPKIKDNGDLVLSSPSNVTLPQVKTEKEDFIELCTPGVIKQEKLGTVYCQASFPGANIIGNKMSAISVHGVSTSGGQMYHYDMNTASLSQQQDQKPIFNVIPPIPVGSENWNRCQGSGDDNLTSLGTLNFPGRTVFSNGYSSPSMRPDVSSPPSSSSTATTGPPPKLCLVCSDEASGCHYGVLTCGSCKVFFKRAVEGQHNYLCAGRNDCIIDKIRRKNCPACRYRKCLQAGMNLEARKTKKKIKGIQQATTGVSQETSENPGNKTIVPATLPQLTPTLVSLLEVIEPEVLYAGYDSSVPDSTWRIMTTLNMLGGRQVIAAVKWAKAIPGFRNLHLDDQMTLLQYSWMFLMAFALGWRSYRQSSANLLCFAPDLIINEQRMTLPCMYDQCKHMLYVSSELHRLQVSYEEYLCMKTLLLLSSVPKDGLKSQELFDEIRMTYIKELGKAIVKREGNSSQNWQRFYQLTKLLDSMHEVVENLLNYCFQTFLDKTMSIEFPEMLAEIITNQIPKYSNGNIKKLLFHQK
The test is described as follows: NANEX column: HEK293T lysate with GFP-GR on immobilised CA15816; A280/A488, SDS-PAGE, western blot [D00049 FIG. 44B].

Test [7] has as its target EPEA-tagged GFP (GFP-EPEA) protein. The test is described as follows: BLI; analyte not stated.
Test [8] concerns the target mCherry. The test is described as follows: BLI.
Method: (§4) Streptavidin-coated Octet® biosensors were used to capture biotinylated Nanobodies (1 μg/mL). […] All assays were performed in Hepes 25 mM pH7.5, NaCl 150 mM supplemented with BSA 0.1% and Tween²⁰ 0.005% at room temperature.
The target in test [9] is mCherry. Nature of the test: BLI. This is another data set of the same source.
Method: as §4
Test [10] concerns the target mCherry. The test is described as follows: BLI (OctetRed), biotinylated Nb on streptavidin sensor, mCherry 8.23-222 nM.
Method: as §4
The target in test [11] is mCherry. The description is as above. This is another data set of the same source.
Method: as §4
The target in test [12] is T5, FmIH_lectin_mCherry_his (CA17337).
T5 construct: also called mCherry-fusion protein
Nature of the test: displacement of FmlH_lectin_mCherry_his from immobilised CA16964 (NANEX column) by 1 mg CA17302; A280 and SDS-PAGE [D00043 FIG. 39B].

Test [13] has the same target. The test is described as follows: NANEX column: lysate with FmlH_lectin_mCherry_his on immobilised CA17341; A280/A585 and SDS-PAGE [D00045 FIG. 41B].
Test [14] addresses T1, native human coagulation factor IX. The test is described as follows: NANEX column: 30 mL human recovered plasma recirculated over immobilised MegaBody CA16388; A280, SDS-PAGE and western blot [D00048 FIG. 43B; D00048 FIG. 43C].
Method: The purification process was monitored by measuring the absorbance at 280 nm (Protein absorption) (FIGS. 43A-43C). The elution peak was collected in 750 μl fractions and analysed in SDS/PAGE gel and western blot including commercial human coagulation factor IX as a control (FIGS. 43A-43C).

T1 sequence (P00740 47-461 limits assumed): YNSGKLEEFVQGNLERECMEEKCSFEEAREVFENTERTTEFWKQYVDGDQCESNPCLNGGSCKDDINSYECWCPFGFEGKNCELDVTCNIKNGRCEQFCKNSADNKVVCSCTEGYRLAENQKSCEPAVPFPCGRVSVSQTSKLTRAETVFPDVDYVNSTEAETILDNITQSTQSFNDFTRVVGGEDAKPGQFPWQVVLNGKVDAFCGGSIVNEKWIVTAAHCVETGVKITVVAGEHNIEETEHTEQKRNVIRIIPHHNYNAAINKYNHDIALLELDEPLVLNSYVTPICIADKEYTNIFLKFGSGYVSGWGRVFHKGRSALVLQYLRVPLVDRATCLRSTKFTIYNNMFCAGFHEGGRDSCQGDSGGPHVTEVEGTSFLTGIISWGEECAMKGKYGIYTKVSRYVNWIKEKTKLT

B1: CA16383 FIX functionalized Nanobody stripper (MegaBody MbCA10309^YgjK, including C-terminal 6xHis+EPEA tag) (other)
chain: QVQLVESGGGLVKEETQSGLNNYARVVEKGQYDSLEIPAQVAASWESGRDDAAVFGFIDKEQLDKYVANGGKRSDWTVKFAENRSQDGTLLGYSLLQESVDQASYMYSDNHYLAEMATILGKPEEAKRYRQLAQQLADYINTCMFDPTTQFYYDVRIEDKPLANGCAGKPIVERGKGPEGWSPLFNGAATQANADAVVKVMLDPKEFNTFVPLGTAALTNPAFGADIYWRGRVWVDQFWFGLKGMERYGYRDDALKLADTFFRHAKGLTADGPIQENYNPLTGAQQGAPNFSWSAAHLYMLYNDFFRKQASGGGSGGGGSGGGGSGNADNYKNVINRTGAPQYMKDYDYDDHQRFNPFFDLGAWHGHLLPDGPNTMGGFPGVALLTEEYINFMASNFDRLTVWQDGKKVDFTLEAYSIPGALVQKLTAKDVQVEMTLRFATPRTSLLETKITSNKPLDLVWDGELLEKLEAKEGKPLSDKTIAGEYPDYQRKISATRDGLKVTFGKVRATWDLLTSGESEYQVHKSLPVQTEINGNRFTSKAHINGSTTLYTTYSHLLTAQEVSKEQMQIRDILARPAFYLTASQQRWEEYLKKGLTNPDATPEQTRVAVKAIETLNGNWRSPGGAVKFNTVTPSVTGRWFSGNQTWPWDTWKQAFAMAHFNPDIAKENIRAVFSWQIQPGDSVRPQDVGFVPDLIAWNLSPERGGDGGNWNERNTKPSLAAWSVMEVYNVTQDKTWVAEMYPKLVAYHDWWLRNRDHNGNGVPEYGATRDKAHNTESGEMLFTVKKSLRLSCATSGIGFSIYSMGWYRQAPGKERELVASIAGNEDKDYVESVKGRFTISRDYAKNTLYLEMSGLKFEDTAMYYCAAGLRRGVSLTPYYWGQGTQVTVSSHHHHHHEPEA
notes: also called MegaBody CA16383
In the case of B1, in test [1], the binding result was “binds”.

B2: CA11143 FIX Nanobody trapper (including C-terminal 6xHis+EPEA tag) (VHH)
VHH: QVQLVESGGALVQPGGSLRLSCAASGFTFDNYAMNWVRQAPGKGLEWVSGINWNGRNTYYAESVKDRFTISRDNAKNTLYLQMNSLKSEDTAVYYCAKEIITSGGPTGKYDYWGQGTQVTVSS
notes: also called Nb CA11143
As for B2, the binding result in test [2] is “binds”.

B3: CA15816 GFP-NbT54A/V55A (C-term. 6xHis + EPEA) (VHH)
VHH: QVQLVESGGGLVQAGGSLRLSCAASGRTFSTAAMGWFRQAPGKERDFVAGIYWAAGSTYYADSAKGRFTISRDNAKNTVYLQMDSLKPEDTAVYYCAARRRGFTLAPTRANEYDYWGQGTQVTVSS
modifications: biotinylated for BLI
notes: T54A/V55A mutant of CA12760; also called Nb CA15816
For B3, in the test with GFP protein [3], the “Half-time ratio (relative to the wt Nb CA12760)” value worked out at 70 fold and the “KD ratio (relative to the wt Nb CA12760)” value was 50 fold. In the test with GFP protein [4], this molecule came in with a Kd of 2.7 nM, a koff of 0.00225 s⁻¹ and a kon of 835000 M⁻¹ s⁻¹. Further, the binding result in test [5] is on record as “binds”. Also, the binding result in test [6] is on record as “binds”.

B4: CA4375, EPEA-NbSyn2 (C-term. 6xHis) (VHH)
VHH: QVQLQESGGGSVQAGGSLRLSCAASGIDSSSYCMGWFRQRPGKEREGVARINGLGGVKTAYADSVKDRFTISRDNAENTVYLQMNSLKPEDTAIYYCAAKFSPGYCGGSWSNFGYWGQGTQVTVSS
notes: Selected against human alpha-synuclein; also called monovalent CA4375; EPEA-specific Nanobody
As to B4, the Kd in [7] stood at 60 nM.

B5: CA17302 mCherry Nanobody stripper (including C-terminal 6xHis+EPEA tag) (VHH)
VHH: QVQLVESGGGLVQAGGSLRLSCVASGLPFSRYNMAWFRQAPGKEREFVADIDWSGDSTYDLDSVKGRFTISRDNAKNTVYLQMSSLLPEDTAVYYCAAHFKFILAQRIKWGDMDYWGKGTQVTVSS
modifications: biotinylated for BLI
notes: also called Nb CA17302
Take B5: in the test with mCherry [8], the “Half time ratio (relative to CA17302)” value worked out at 1 fold and the “KD ratio (relative to CA17302)” value was 1 fold. In addition, in the test with mCherry [9], the “Half time ratio (relative to wt)” value is 1 fold and the “KD ratio (relative to wt)” value turned out to be 1 fold. Further, in the test with mCherry [10], the Kd stood at 1.69 nM, the koff stood at 0.00102 s⁻¹ and the on-rate constant (kon) came out at 619000 M⁻¹ s⁻¹. In addition, in the test with mCherry [11], the Kd is 1.69 nM, the koff was found to be 0.00102 s⁻¹ and the kon is 619000 M⁻¹ s⁻¹. The binding result in test [12] is “binds”.

B6: CA17341 mCherry Nanobody trapper (CA17302 mutant) (including C-terminal 6xHis+EPEA tag) (VHH)
VHH: QVQLVESGGGLVQAGGSLRLSCVASGLPFSRYNMAWFRQAPGKEREFVADIDWSGDSTYDLDSVKGRFTISRDNAKNTVYLQMSSLLPEDTAVYYCAAHFKFALAQRIKWGDMDYWGKGTQVTVSS
modifications: biotinylated for BLI
notes: also called Nb CA17341
Consider B6, for which, in the test with mCherry [9], the “Half time ratio (relative to wt CA17302)” value came out at 2.26 fold and the “KD ratio (relative to wt CA17302)” value turned out to be 2.4 fold. In the test with mCherry [11], this molecule had a Kd of 4.05 nM, a koff of 0.00231 s⁻¹ and a kon of 601000 M⁻¹ s⁻¹. Besides, the binding result in test [13] is “binds”.

B7: CA16388 FIX functionalized Nanobody trapper (MegaBody MbCA11143^YgjK, including C-terminal 6xHis+EPEA tag) (other)
chain: QVQLVESGGGLVKEETQSGLNNYARVVEKGQYDSLEIPAQVAASWESGRDDAAVFGFIDKEQLDKYVANGGKRSDWTVKFAENRSQDGTLLGYSLLQESVDQASYMYSDNHYLAEMATILGKPEEAKRYRQLAQQLADYINTCMFDPTTQFYYDVRIEDKPLANGCAGKPIVERGKGPEGWSPLFNGAATQANADAVVKVMLDPKEFNTFVPLGTAALTNPAFGADIYWRGRVWVDQFWFGLKGMERYGYRDDALKLADTFFRHAKGLTADGPIQENYNPLTGAQQGAPNFSWSAAHLYMLYNDFFRKQASGGGSGGGGSGGGGSGNADNYKNVINRTGAPQYMKDYDYDDHQRFNPFFDLGAWHGHLLPDGPNTMGGFPGVALLTEEYINFMASNFDRLTVWQDGKKVDFTLEAYSIPGALVQKLTAKDVQVEMTLRFATPRTSLLETKITSNKPLDLVWDGELLEKLEAKEGKPLSDKTIAGEYPDYQRKISATRDGLKVTFGKVRATWDLLTSGESEYQVHKSLPVQTEINGNRFTSKAHINGSTTLYTTYSHLLTAQEVSKEQMQIRDILARPAFYLTASQQRWEEYLKKGLTNPDATPEQTRVAVKAIETLNGNWRSPGGAVKFNTVTPSVTGRWFSGNQTWPWDTWKQAFAMAHFNPDIAKENIRAVFSWQIQPGDSVRPQDVGFVPDLIAWNLSPERGGDGGNWNERNTKPSLAAWSVMEVYNVTQDKTWVAEMYPKLVAYHDWWLRNRDHNGNGVPEYGATRDKAHNTESGEMLFTVKKSLRLSCAASGFTFDNYAMNWVRQAPGKGLEWVSGINWNGRNTYYAESVKDRFTISRDNAKNTLYLQMNSLKSEDTAVYYCAKEIITSGGPTGKYDYWGQGTQVTVSSHHHHHHEPEA
notes: also called MegaBody CA16388
For the molecule B7, in [14], the binding result is on record as “binds”.
